Measured values taken from patent publication US20200131473.

Test system: ETAA1-ATR activating domain (ETAA1-AAD)
Sequence (chain, as listed by the source): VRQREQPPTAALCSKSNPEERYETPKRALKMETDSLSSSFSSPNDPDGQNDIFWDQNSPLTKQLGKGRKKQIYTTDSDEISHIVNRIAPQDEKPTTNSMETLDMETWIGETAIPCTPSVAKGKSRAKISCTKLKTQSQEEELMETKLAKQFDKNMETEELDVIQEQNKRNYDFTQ

Chain of ATR (ATM and Rad3-related kinase) (chain, as listed by the source): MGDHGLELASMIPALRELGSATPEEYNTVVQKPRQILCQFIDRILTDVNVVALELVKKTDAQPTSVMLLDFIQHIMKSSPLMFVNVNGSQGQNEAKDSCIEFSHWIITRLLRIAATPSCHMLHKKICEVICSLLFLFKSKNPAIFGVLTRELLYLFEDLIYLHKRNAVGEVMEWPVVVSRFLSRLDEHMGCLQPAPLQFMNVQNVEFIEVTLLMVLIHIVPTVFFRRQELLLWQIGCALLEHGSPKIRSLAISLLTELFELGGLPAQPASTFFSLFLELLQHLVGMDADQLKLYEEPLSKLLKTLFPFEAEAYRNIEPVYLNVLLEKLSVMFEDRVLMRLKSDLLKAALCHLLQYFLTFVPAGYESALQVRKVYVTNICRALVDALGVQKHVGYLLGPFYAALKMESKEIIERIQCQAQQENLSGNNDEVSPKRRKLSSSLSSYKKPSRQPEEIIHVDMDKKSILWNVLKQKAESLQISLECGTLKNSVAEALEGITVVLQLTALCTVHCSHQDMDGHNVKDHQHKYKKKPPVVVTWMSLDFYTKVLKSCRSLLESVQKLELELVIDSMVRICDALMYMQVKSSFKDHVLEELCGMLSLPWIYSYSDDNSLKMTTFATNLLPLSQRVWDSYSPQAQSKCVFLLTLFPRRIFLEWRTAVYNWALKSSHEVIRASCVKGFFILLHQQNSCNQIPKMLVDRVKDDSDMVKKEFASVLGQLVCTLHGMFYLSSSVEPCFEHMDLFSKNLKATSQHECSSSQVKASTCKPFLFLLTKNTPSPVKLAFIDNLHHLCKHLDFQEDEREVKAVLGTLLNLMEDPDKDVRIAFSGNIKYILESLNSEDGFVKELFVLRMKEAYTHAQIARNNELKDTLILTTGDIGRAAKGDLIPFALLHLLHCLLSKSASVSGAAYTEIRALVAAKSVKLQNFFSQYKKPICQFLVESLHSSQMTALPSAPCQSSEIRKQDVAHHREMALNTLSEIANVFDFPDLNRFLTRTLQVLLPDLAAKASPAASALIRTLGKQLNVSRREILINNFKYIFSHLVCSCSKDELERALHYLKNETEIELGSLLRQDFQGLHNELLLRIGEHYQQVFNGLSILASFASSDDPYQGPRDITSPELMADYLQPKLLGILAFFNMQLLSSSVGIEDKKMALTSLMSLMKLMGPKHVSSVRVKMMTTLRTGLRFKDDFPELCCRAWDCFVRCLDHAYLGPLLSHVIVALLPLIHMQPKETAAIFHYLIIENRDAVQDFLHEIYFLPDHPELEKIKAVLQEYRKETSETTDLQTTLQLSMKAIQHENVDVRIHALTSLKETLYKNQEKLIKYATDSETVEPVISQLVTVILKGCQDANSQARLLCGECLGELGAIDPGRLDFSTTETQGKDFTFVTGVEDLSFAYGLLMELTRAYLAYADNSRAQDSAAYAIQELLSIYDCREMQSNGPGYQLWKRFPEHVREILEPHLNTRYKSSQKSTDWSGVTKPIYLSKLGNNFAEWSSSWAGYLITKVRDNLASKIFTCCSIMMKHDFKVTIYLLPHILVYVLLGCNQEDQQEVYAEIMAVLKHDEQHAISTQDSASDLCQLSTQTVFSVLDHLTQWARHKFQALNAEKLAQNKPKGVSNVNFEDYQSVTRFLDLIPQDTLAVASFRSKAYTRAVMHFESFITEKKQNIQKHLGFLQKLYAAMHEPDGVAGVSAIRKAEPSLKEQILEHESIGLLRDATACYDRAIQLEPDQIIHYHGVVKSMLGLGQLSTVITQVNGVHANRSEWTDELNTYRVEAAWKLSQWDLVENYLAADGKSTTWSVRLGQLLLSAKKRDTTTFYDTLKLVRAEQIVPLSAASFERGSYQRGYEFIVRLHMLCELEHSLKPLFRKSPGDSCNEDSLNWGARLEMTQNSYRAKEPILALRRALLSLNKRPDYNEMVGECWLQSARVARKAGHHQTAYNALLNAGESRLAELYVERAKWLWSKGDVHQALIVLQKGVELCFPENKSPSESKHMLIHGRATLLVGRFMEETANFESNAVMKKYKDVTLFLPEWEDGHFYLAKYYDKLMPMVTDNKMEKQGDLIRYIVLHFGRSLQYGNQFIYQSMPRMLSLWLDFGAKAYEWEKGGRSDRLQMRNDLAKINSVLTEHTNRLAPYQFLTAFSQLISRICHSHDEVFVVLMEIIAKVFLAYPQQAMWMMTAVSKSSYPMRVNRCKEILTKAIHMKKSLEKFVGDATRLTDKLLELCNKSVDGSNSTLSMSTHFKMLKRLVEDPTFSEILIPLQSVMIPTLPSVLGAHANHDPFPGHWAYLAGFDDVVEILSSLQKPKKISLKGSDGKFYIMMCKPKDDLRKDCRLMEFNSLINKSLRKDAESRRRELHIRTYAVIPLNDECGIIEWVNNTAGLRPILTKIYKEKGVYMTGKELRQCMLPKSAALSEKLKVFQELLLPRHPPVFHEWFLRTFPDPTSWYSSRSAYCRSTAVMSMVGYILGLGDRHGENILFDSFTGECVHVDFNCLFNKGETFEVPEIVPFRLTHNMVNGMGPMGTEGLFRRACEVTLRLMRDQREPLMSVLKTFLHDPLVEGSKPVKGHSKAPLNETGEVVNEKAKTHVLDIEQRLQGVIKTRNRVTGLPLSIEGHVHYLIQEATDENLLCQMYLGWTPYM

ATR (ATM and Rad3-related kinase)
phosphorylation of H2AX, CHK1 and CHK2 (immunoblot and FACS in Dox-iETAA1 ESCs): ATR activation through ETAA1 expression leads to the phosphorylation of H2AX and CHK1 but not CHK2 in ESCs
